We go through eight molecules from patent publication US20120027722A1 (MEDICAL RESEARCH COUNCIL, published 2012).

Assay [1] concerns the target T1, Peptide D3.
T1 construct: member of the group m28
The assay can be described thus: peptide ELISA: biotinylated peptide on streptavidin plate, COS7 supernatant, anti-human kappa HRP, OD 655 nm. A general note: An ELISA detects its analyte on a solid surface through an enzyme-linked reagent.

The target in assay [2] is T2, AP33 mimotope peptide H6.
T2 construct: captured on streptavidin plates; also called mimotope H6; H6 peptide
T2 peptide: VELRNLGGTWRPGSGK-biotin
The description is as above.

The target in assay [3] is T3, E2 peptide B1 (Hepatitis C virus, genotype 2b (Table 5)). Described as above.
In assay [4] the target is T4, E2 peptide C2 (Hepatitis C virus, genotype 1a (Table 5), not fully specified (residue 16, C-terminus)).
T4 peptide: QLINTNGSWHVNGSGK
Described as above.

The target in assay [5] is T1, Peptide D3. The assay is described as above. The source holds these as a separate data set.
Assay [6] addresses T2, AP33 mimotope peptide H6. The description is as above.
The target of assay [7] is T3, E2 peptide B1. The description is as above. The source holds these as a separate data set.
Assay [8] has as its target T4, E2 peptide C2. The assay is described as above.
For assay [9], the target named is T1, Peptide D3. Described as above. The source holds these as a separate data set.
For assay [10], the target named is T2, AP33 mimotope peptide H6. Described as above.
Assay [11] addresses T3, E2 peptide B1. Described as above. The source holds these as a separate data set.
The target of assay [12] is HCV E1E2 glycoproteins, genotype 2a isolate JFH1 (on HCVpp) (Hepatitis C virus genotype 2a (JFH1), UniProt Q99IB8 192-383; Q99IB8 384-750). The assay can be described thus: cell-based or functional assay.
In assay [13] the target is HCV E1E2 glycoproteins, genotype 3a isolate F4/2-35 (on HCVpp) (Hepatitis C virus genotype 3a (F4/2-35)). The assay can be described thus: cell-based or functional assay.
For assay [14], the target named is HCV E1E2 glycoproteins, isolate 2A2.4 (on HCVpp) (Hepatitis C virus genotype 2 (2A2.4)). The assay can be described thus: cell-based or functional assay.
The target of assay [15] is HCV E1E2 glycoproteins, isolate 4.21.16 (on HCVpp) (Hepatitis C virus genotype 4 (4.21.16)). The assay can be described thus: cell-based or functional assay.
Assay [16] deals with HCV E1E2 glycoproteins, isolate 6.5.8 (on HCVpp) (Hepatitis C virus genotype 6 (6.5.8)). The assay can be described thus: cell-based or functional assay.
For assay [17], the target named is T2, AP33 mimotope peptide H6. The assay can be described thus: peptide ELISA: biotinylated peptide on streptavidin plate, COS7 supernatant, anti-human kappa HRP, OD 655 nm.
In assay [18] the target is T1, Peptide D3. The description is as above. This is another data set of the same source.
Assay [19] concerns the target T2, AP33 mimotope peptide H6. The assay is described as above.
The target in assay [20] is T3, E2 peptide B1. Described as above. The source holds these as a separate data set.
Assay [21] addresses T4, E2 peptide C2. Described as above.
Assay [22] has as its target T1, Peptide D3. The assay is described as above. This is another data set of the same source.
For assay [23], the target named is T2, AP33 mimotope peptide H6. Described as above.
In assay [24] the target is T3, E2 peptide B1. Described as above. This is another data set of the same source.
Assay [25] deals with T1, Peptide D3.
Assay [26] has as its target T3, E2 peptide B1. The assay can be described thus: peptide ELISA, COS7 supernatants, normalized to H6 binding.
Assay [27] deals with T4, E2 peptide C2. The assay can be described thus: peptide ELISA: biotinylated peptide on streptavidin plate, COS7 supernatant, normalised as percentage of H6 binding.

Read-outs that look alike come from different tables or passages of the source. No end group written: not given here.

Sequence of HCV E1E2 glycoproteins, genotype 2a isolate JFH1 (on HCVpp) (Q99IB8 192-383 limits assumed, chain 1 of 2): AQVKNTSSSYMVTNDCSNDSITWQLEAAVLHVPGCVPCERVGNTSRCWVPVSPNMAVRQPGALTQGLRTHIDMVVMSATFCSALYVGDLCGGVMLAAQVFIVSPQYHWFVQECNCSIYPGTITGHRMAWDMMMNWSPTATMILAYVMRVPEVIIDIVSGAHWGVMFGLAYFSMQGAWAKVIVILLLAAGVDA
Sequence of HCV E1E2 glycoproteins, genotype 2a isolate JFH1 (on HCVpp) (Q99IB8 384-750 limits assumed, chain 2 of 2): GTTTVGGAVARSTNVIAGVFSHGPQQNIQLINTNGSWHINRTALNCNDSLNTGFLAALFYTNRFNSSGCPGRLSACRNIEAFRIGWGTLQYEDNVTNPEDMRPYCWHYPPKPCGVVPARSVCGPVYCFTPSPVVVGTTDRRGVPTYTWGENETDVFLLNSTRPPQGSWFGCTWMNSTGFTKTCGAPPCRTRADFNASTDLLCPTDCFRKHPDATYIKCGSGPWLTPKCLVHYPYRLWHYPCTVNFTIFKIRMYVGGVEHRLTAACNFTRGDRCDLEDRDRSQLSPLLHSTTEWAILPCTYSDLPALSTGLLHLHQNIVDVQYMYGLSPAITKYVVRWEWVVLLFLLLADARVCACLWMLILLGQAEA

B1: AP33 RH-D/RK2bc (antibody, V domains shown)
VH: QVQLQESGPGLVKPSETLSLTCTVSGDSITSGYWNWIRQPPGRALEYIGYISYSGSTYYNLSLRSRITISRDTSKNQYSLRLSSVTAADTAMYYCALITTTTYAMDYWGQGTTVTVS
VL: EIVLTQSPSSLSASVGDRVTITCRASESVDGYGNSFLHWFQQKPGKAPKLLIYLASNLNSGVPSRFSGSGSRTDFTLTISSLQPEDFATYYCQQNNVDPWTFGQGTKLEIK
notes: COS7 supernatant
Regarding B1, the “EC50 (read off the curve)” value with Peptide D3 [1] and in the assay with AP33 mimotope peptide H6 [2] was about 0.04 µg/mL each time. For the same molecule, the binding result with E2 peptide B1 [3] is given as “no binding (tested: about 950 ng/ml)”; with E2 peptide C2 [4], “binds”.

B2: humanized AP33 antibody RH-C/RK2bc (antibody, V domains shown)
VH: QVQLQESGPGLVKPSETLSLTCTVSGDSITSGYWNWIRQPPGRALEWMGYISYSGSTYYNLSLRSRITISRDTSKNQYSLRLSSVTAADTAMYYCALITTTTYAMDYWGQGTTVTVSS
VL: EIVLTQSPSSLSASVGDRVTITCRASESVDGYGNSFLHWFQQKPGKAPKLLIYLASNLNSGVPSRFSGSGSRTDFTLTISSLQPEDFATYYCQQNNVDPWTFGQGTKLEIK
As for B2, the EC50 (read off the curve) – broadly, the concentration at which the effect is half-maximal – is about 0.05 µg/mL in the assay with Peptide D3 [5] and about 0.04 µg/mL with AP33 mimotope peptide H6 [6]. For the same molecule, the binding result with E2 peptide B1 [7] is “no binding (tested: about 2200 ng/ml)”; in the assay with E2 peptide C2 [8] it was “binds”.

B3: humanized AP33 antibody RH-G/RK2bc (antibody, V domains shown)
VH: QVQLQESGPGLVKPSETLSLTCTVSGDSITSGYWNWIRQPPGRALEYMGYISYSGSTYYNLSLRSRITISRDTSKNQFSLRLSSVTAADTAMYYCALITTTTYAMDYWGQGTTVTVS
VL: EIVLTQSPSSLSASVGDRVTITCRASESVDGYGNSFLHWFQQKPGKAPKLLIYLASNLNSGVPSRFSGSGSRTDFTLTISSLQPEDFATYYCQQNNVDPWTFGQGTKLEIK
Take B3: the figures for the binding result in the assay with Peptide D3 [9], with AP33 mimotope peptide H6 [10] and with E2 peptide B1 [11] were “binds”, “binds” and “no binding (tested: about 750 ng/ml)”, respectively.

B4: humanized AP33 antibody RHb-h/RK2b (antibody, V domains shown)
VH: QVQLQESGPGLVKPSETLSLTCTVSGDSITSGYWNWIRQPPGRALEYMGYISYSGSTYYNLSLRSRITISRDTSKNQYSLRLSSVTAADTAMYYCALITTTTYAMDYWGQGTTVTVS
VL: EIVLTQSPSSLSASVGDRVTITCRASESVDGYGNSFLHWFQQKPGKAPKLLIYLASNLNSGVPSRFSGSGSGTDFTLTISSLQPEDFATYYCQQNNVDPWTFGQGTKLEIK
In the case of B4, the “IC50 of HCVpp infection (Huh-7, luciferase)” value in assay [12] was 2.7 µg/mL; in assay [13], 1.15 µg/mL; in assay [14] it was 1.7 µg/mL; in assay [15] it was 0.33 µg/mL; in [16], under 0.41 µg/mL. The “IC90 of HCVpp infection (Huh-7, luciferase)” value in [12] turned out to be 22.1 µg/mL; in assay [13], 8.3 µg/mL; in assay [14], 20 µg/mL; in assay [15], 3.64 µg/mL; in assay [16] it was 3.7 µg/mL. In the assay with AP33 mimotope peptide H6 [17], the “EC50 (read off the curve)” value is about 0.04 µg/mL.

B5: AP33 RH-B/RK2bc (antibody, V domains shown)
VH: QVQLQESGPGLVKPSETLSLTCTVSGDSISSGYWNWIRQPPGRALEYMGYISYSGSTYYNLSLRSRITISRDTSKNQYSLRLSSVTAADTAMYYCALITTTTYAMDYWGQGTTVTVSS
VL: EIVLTQSPSSLSASVGDRVTITCRASESVDGYGNSFLHWFQQKPGKAPKLLIYLASNLNSGVPSRFSGSGSRTDFTLTISSLQPEDFATYYCQQNNVDPWTFGQGTKLEIK
notes: COS7 supernatant
With B5, the binding result in the assay with Peptide D3 [18] is reported as “binds”; with AP33 mimotope peptide H6 [19], “binds”; with E2 peptide B1 [20], “no binding (tested: about 800 ng/ml)”; with E2 peptide C2 [21], “binds”.

B6: AP33 RH-E/RK2bc (antibody, V domains shown)
VH: QVQLQESGPGLVKPSETLSLTCTVSGDSITSGYWNWIRQPPGRALEYMGYISYSGSTYYNLSLRSRVTISRDTSKNQYSLRLSSVTAADTAMYYCALITTTTYAMDYWGQGTTVTVS
VL: EIVLTQSPSSLSASVGDRVTITCRASESVDGYGNSFLHWFQQKPGKAPKLLIYLASNLNSGVPSRFSGSGSRTDFTLTISSLQPEDFATYYCQQNNVDPWTFGQGTKLEIK
notes: COS7 supernatant
For B6, the binding result in the assay with Peptide D3 [22] is “binds”; in the assay with AP33 mimotope peptide H6 [23], “binds”; with E2 peptide B1 [24], “no binding (tested: about 800 ng/ml)”.

B7: chimeric AP33 heavy chain mutant Y47F with chimeric light chain Vl (antibody, V domains shown)
VH: EVQLQESGPSLVKPSQTLSLTCSVTGDSITSGYWNWIRKFPGNKLEFMGYISYSGSTYYNLSLRSRISITRDTSKNQYYLQLNSVTTEDTATYYCALITTTTYAMDYWGQGTSVTVS
VL: NIVLTQSPVSLAVSLGQRATISCRASESVDGYGNSFLHWFQQKPGQPPKLLIYLASNLNSGVPARFSGSGSRTDFTLTIDPVEADDAATYYCQQNNVDPWTFGGGTKLEIK
notes: also called AP33 Y47F
For B7, in the assay with Peptide D3 [25], the “EC50 (read off the curve)” value was about 0.02 µg/mL. Further, the binding result with E2 peptide B1 [26] and in the assay with E2 peptide C2 [27] was “binds” each time.

B8: chimeric AP33 heavy chain mutant Y47W with chimeric light chain Vl (antibody, V domains shown)
VH: EVQLQESGPSLVKPSQTLSLTCSVTGDSITSGYWNWIRKFPGNKLEWMGYISYSGSTYYNLSLRSRISITRDTSKNQYYLQLNSVTTEDTATYYCALITTTTYAMDYWGQGTSVTVS
VL: NIVLTQSPVSLAVSLGQRATISCRASESVDGYGNSFLHWFQQKPGQPPKLLIYLASNLNSGVPARFSGSGSRTDFTLTIDPVEADDAATYYCQQNNVDPWTFGGGTKLEIK
notes: also called AP33 Y47W
On to B8, for which the “EC50 (read off the curve)” value with Peptide D3 [25] is about 0.03 µg/mL. For the same molecule, the binding result with E2 peptide B1 [26] and with E2 peptide C2 [27] was “binds” throughout.
